In US20260274944A1 (VECT HORUS, published 2026) one finds binding result and Kd data, which are given here for ten molecules.

Changes are numbered by the printed parent chain.

Experiment [1] addresses T1, mouse RAGE (mRAGE) fused to EGFP, expressed on CHO cells (mouse, UniProt Q62151 23-402).
T1 construct: whole, on cells; also called CHO-mRAGE-EGFP; murine RAGE; not shown: EGFP from the pEGFP-N1 vector (Clontech), fused at the C-terminal (intracellular) end
Description: immunocytochemistry, 50 nM on living CHO-mRAGE-EGFP cells, anti-hFc detection. How it is done:
(§1) Immunocytochemistry experiments on CHO cell lines expressing the mouse or human RAGE fused to EGFP were performed to confirm the ability of fusion proteins to bind the RAGE. For these experiments, VHH-Fc fusion proteins were incubated at 50 nM on living cells, detected using an Alexa594-conjugated anti-hFc antibody after cells fixation with PBS-PFA 4% and permeabilization of the cell membrane with PBS-0.1% Triton X100 and photographed with a confocal microscope.

Experiment [2] has as its target T2, HA-mRAGE (mouse, UniProt Q62151 23-402).
T2 construct: mature; Transiently expressed on CHO cells; also called full-length mRAGE with N-terminal HA tag; not shown: HA tag at the N-terminus; EGFP fused at the C-terminal end (pEGFP-N1)
Description: immunocytochemistry, 250 nM on transfected CHO cells, anti-human Fc detection. The source says: To determine the binding domain of VHH-RAGE-Fc, inventors suppressed RAGE domains sequentially, expressed the resulting truncated constructs mRAGE-ΔV, mRAGE-ΔV-C1 (FIG. 9-A) and compared VHHRAGE-Fc binding on the full-length construct (mRAGE and HA-mRAGE) in transfected CHO cells. An HA tag was introduced in the N-ter of each receptor to validate appropriate presentation of the extracellular domain using anti-HA, non-permeabilizing immunocytochemistry. EGFP was fused at the C-terminal end to enable easy visualization of the truncated and full-length receptor by fluorescence microscopy. […] The synthetised DNA fragments were cloned into a pEGFP-N1 plasmid after restriction using XhoI EcoRI and ligation. CHO WT cells were transfected using jetPEI™ with the different plasmid constructs according to the manufacturer's instructions.
For immunocytochemistry, living transfected cells were incubated with 250 nM VHH-RAGE-hFc or anti-HA antibody for 1 hr at 37° C. Cells were then fixed using PBS-PFA 4%.

The target in experiment [3] is T1, mouse RAGE (mRAGE) fused to EGFP, …. Description: apparent Kd (Kd app), flow cytometry on CHO-mRAGE-EGFP cells. How it is done: The binding properties of VHHs with affinity for RAGE were tested using flow cytometry, and apparent affinities (K_{d app}) were determined. All experiments were performed in 96 well plates using 2×10⁵ cells/well, at 4° C. with shaking. CHO cell lines expressing RAGE fused to EGFP or CHO WT cells were saturated with PBS/BSA 2% solution during 30 min to avoid nonspecific binding, followed by incubation with purified VHHs at concentrations ranging from 50 μM to 0.5 nM for 1 hr. After one wash in PBS/BSA 2%, cells were incubated for 1 hr with an anti-6His tag antibody (mouse), washed twice with PBS/BSA 2%, and incubated for 1 hr with an Alexa647-conjugated anti-mouse secondary antibody. After two last washes in PBS/BSA 2%, cells were fixed by incubation for 15 min with PBS/PFA 2%, washed once with PBS and finally resuspended in PBS. Fluorescence levels were assessed using an Attune N×T flow cytometer (Thermo Fisher Scientific).
The binding properties of VHH-siRNA conjugates with affinity for RAGE were tested using flow cytometry, and apparent affinities (K_{d app}) were determined. The same protocol as the one described in example IV was used.
All VHH-siRNAs bound the mRAGE and induced a concentration-dependent shift of the signal (FIG. 4-A), confirming that the VHH conjugated to both the siTTRm and the siSOD1m retained the binding to the receptor of interest. The VHH-siRNA K_{d app} were calculated using GraphPad Prism software.
Background: A flow cytometer gives signals particle by particle.

The target is the same in experiment [4]. The experiment can be described thus: flow cytometry competition on CHO-mRAGE-EGFP cells; competitor against tracer VHH 1-Fc. How it is done: FIG. 8. Competition assay between VHHs and VHH 1-Fc. (A) Principle of the competition test. In a first step, CHO-mRAGE-EGFP cells were incubated 1 hr at 4° C. with the competitor in dilution series. Second, the tracer at EC80-90 was added and incubated for 1 hr at 4° C. […] Measurements were performed using flow cytometry. (B) CHO-mRAGE-EGFP cells were incubated with the competitors (VHHs). Tracer (VHH 1-Fc) at EC80 was then added and detected with Alexa647-conjugated anti-hFc antibody (1/400).

In experiment [5] the target is T3, human RAGE (hRAGE) fused to EGFP, stably expressed on CHO cells (human, UniProt Q15109 23-404).
T3 construct: whole, on cells; also called CHO-hRAGE-EGFP; human receptor; not shown: EGFP from the pEGFP-N1 vector (Clontech), fused at the C-terminal (intracellular) end
T3 sequence (Q15109 23-404): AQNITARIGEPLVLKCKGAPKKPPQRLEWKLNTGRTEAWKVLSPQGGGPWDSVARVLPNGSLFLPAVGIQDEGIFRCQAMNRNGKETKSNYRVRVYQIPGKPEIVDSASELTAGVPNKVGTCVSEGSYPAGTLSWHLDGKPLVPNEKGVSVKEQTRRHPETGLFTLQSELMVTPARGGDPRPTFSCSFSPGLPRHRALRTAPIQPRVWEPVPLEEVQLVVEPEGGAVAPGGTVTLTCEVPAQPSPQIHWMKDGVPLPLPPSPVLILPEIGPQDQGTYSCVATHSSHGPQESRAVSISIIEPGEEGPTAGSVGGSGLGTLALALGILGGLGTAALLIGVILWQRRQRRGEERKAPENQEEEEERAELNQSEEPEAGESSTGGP
Description: flow cytometry on CHO-hRAGE-EGFP cells, 4 °C, anti-6His detection.

Experiment [6] deals with T1, mouse RAGE (mRAGE) fused to EGFP, …. Description: flow cytometry on CHO-mRAGE-EGFP cells, 4 °C, anti-6His detection.
For experiment [7], the target named is T4, RAGE in mice lungs (endogenous mouse RAGE at the alveolar epithelium) (mouse, UniProt Q62151 23-402).
T4 construct: whole, on cells; also called RAGE in the lung
T4 sequence (Q62151 23-402): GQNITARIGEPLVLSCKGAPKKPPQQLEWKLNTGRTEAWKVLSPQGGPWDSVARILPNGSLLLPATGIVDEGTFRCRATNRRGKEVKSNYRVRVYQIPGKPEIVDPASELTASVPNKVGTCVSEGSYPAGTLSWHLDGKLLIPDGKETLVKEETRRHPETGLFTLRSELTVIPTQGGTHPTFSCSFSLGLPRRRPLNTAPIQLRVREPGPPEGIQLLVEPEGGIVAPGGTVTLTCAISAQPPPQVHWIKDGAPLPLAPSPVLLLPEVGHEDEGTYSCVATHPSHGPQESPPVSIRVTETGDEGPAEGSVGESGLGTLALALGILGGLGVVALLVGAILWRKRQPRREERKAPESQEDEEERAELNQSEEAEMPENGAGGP
Description: double immunofluorescence on lung sections of mice injected at 35 nmol/kg, 48 hours post injection. The method, then: FIG. 10. Cellular binding/co-localization of VHH-Fc on RAGE in mice lungs. Immunocytochemistry was performed on the lungs of mice injected with VHH ctrl-Fc, VHH 1-Fc and VHH 5-Fc into tail vein at 35 nmol/kg. The mice were perfused with saline 48 hours post injection and the lungs were incubated in PFA 4% overnight. Lungs were extensively washed in PBS 1× and incubated 2 days in sucrose 30%. Double-immunofluorescent staining of lung tissue with anti-RAGE (Alexa Fluor 488, green) and with VHH-Fc (Alexa Fluor 594, red) antibodies were performed on lung sections. Cell nuclei were labeled with Hoechst #33342 at 0.5 μg/ml (blue). Co-labeling appears in yellow/orange in the merged pictures (right panel). Representative photographs were taken with a confocal microscope with 20× and 63× magnification.
To confirm the ability of fusion proteins to bind RAGE in vivo, immunocytochemistry experiments were performed on lungs of mice injected into the tail vein at 35 nmol/kg with VHH ctrl-Fc, VHH 1-Fc and VHH 5-Fc. Mice were perfused with saline 48 hours post injection and lungs were incubated in PFA 4% overnight. Lungs were extensively washed in PBS 1× and incubated 2 days in sucrose 30% before being snap frozen. The fixed lung was embedded in OCT and cut in 14 μm thick sections. […] Cell nuclei were labeled with Hoechst #33342. […]

In experiment [8] the target is T3, human RAGE (hRAGE) fused to EGFP, …. The experiment can be described thus: immunocytochemistry, 50 nM on living CHO-hRAGE-EGFP cells, anti-hFc detection. The method, then: as §1
For experiment [9] the target is unchanged. Description: apparent Kd (Kd app), flow cytometry on CHO-hRAGE-EGFP cells. How it is done:
FIG. 3. Apparent Kd determination of VHHs on hRAGE- and mRAGE-expressing CHO cell lines. (A) CHO-hRAGE-EGFP and CHO-mRAGE-EGFP cells were incubated 1 hr at 4° C. with increasing concentrations of VHHs, detected with a mouse anti-6His (1/1000) and an Alexa647-conjugated anti-mouse secondary antibody (1/400). Measurements were performed using flow cytometry. The ratio of fluorescence intensity for each point was normalized with the corresponding EGFP signal (receptor expression) and gave rise to the arbitrary units. Data are presented as mean±SEM of at least 3 independent experiments. (B) Characteristics of selected VHHs: Molecular Weight (Da); Apparent Kd on human RAGE (nM); Apparent Kd on mouse RAGE (nM). Data are presented as mean±SEM of at least 3 independent experiments.
The binding properties of VHHs with affinity for RAGE were tested using flow cytometry, and apparent affinities (K_{d app}) were determined. […] Fluorescence levels were assessed using an Attune N×T flow cytometer (Thermo Fisher Scientific).
Three VHHs (VHH 1, 2 and 5) out of 5 bound both the human and the mouse RAGE and induced a concentration-dependent shift of the signal (FIG. 3-A). […] Moreover, no labelling of the CHO WT control cells was detected with all the tested VHHs (not shown). The VHH K_{d app} were calculated using GraphPad Prism software.

T2 sequence (Q62151 23-402): as above
T1 sequence (Q62151 23-402): as above

B1: VHH 3-Fc (Fc fusion)
chain: QVQLVQSGGGLVQAGGSLRLSCVASGRTFSNYAMAWFRQAPGEEREFVARISWSGGRTSYADSVKGRFTISRDNAKNTVYLQMISLKPEDTAVYYCATEAGAFGGVYSSTGSYDYWGQGTQVTVSS
notes: VHH with no tag fused to a human IgG1 Fc; also called VHHRAGE-Fc fusion; VHH-RAGE-Fc; not shown: human IgG1-Fc fragment encoded by the pINFUSE-IgG1-Fc2 vector (InvivoGen)
Consider B1, for which the binding result in experiment [1] and in experiment [2] was “binds” throughout.

B2: VHH 4 (VHH)
VHH: B1 chain with Q1E, Q6E, S54R, T98S, A100G, S109A
notes: also called sdAb VHH 4
Take B2: the Kd in experiment [3] came to 32 nM.

B3: VHH 3 (VHH)
VHH: B1 chain
notes: also called sdAb VHH 3
For B3, in experiment [4], the binding result is reported as “binds”.

B4: VHH 2-siSOD1m (other)
VHH: QVQLVQSGGGLVQAGGSLRLSCAASGSVSSIYAMGWYRQAPGKQREWVTTITGRGITDYAASVKGRFTISRDTAKNAVYLQMNNLKPEDTARYYCKIDRRGYAPYWGQGTQVTVSSAAAEQKLISEEDLNGAAHHHHHHGS
modifications: siRNA siSOD1m linked through an azido linker put by bacterial transglutaminase on the glutamine residue of the myc tag, then copper-free click chemistry
notes: VHH-siRNA conjugate
On to B4, for which, in experiment [3], the Kd was determined as 238 nM.

B5: VHH 4-siSOD1m (other)
VHH: EVQLVESGGGLVQAGGSLRLSCVASGRTFSNYAMAWFRQAPGEEREFVARISWRGGRTSYADSVKGRFTISRDNAKNTVYLQMISLKPEDTAVYYCASEGGAFGGVYSATGSYDYWGQGTQVTVSSAAAEQKLISEEDLNGAAHHHHHHGS
modifications: siRNA siSOD1m linked through an azido linker put by bacterial transglutaminase on the glutamine residue of the myc tag, then copper-free click chemistry
notes: VHH-siRNA conjugate
With B5, the Kd in experiment [3] was 6.8 nM.

B6: VHH 1 (VHH)
VHH: QVQLVQSGGGLVQPGGSLRLSCAVSGSIFSSATMGWYRQAPGKQRELAARISSGGSTNYLDSVKGRFTISRDNAKNTVYLQMNSLKLEDTAVYYCRLQANFGLVDYWGKGTQVTVSS
notes: also called sdAb VHH 1
As to B6, the binding result in experiment [5] and in experiment [6] was “binds” in each case.

B7: VHH 1-Fc (Fc fusion)
chain: B6 VHH
notes: as for B1
As to B7, the binding result in experiment [1], in experiment [7], in experiment [2] and in experiment [8] was “binds” throughout.

B8: VHH 2 (VHH)
VHH: QVQLVQSGGGLVQAGGSLRLSCAASGSVSSIYAMGWYRQAPGKQREWVTTITGRGITDYAASVKGRFTISRDTAKNAVYLQMNNLKPEDTARYYCKIDRRGYAPYWGQGTQVTVSS
notes: also called sdAb VHH 2
With B8, the Kd in [9] turned out to be 350 nM. Besides, the binding result in [6] is on record as “binds”.

B9: VHH 2-Fc (Fc fusion)
chain: B8 VHH
notes: as for B1
For B9, the binding result in experiment [1] and in experiment [2] was “binds” in each case.

B10: VHH 5 (VHH)
VHH: EVQLVESGGGLVQPGGSLRLSCAASGTIFSLNPMGWYRQAPGKQLELVALISDSGTANYADFVRGRFTISRDTTKKTLYLQMNSLEPEDTAVYYCRSTFAAGNFYWGQGTQVTVSS
notes: also called sdAb VHH 5
With B10, the Kd in experiment [9] came to 204 nM; in experiment [3], 1490 nM.
